Measured values as given in paper PMC13161473 (2025).

T1: recombinant human TRPML1 E1 domain (human)
T1 chain: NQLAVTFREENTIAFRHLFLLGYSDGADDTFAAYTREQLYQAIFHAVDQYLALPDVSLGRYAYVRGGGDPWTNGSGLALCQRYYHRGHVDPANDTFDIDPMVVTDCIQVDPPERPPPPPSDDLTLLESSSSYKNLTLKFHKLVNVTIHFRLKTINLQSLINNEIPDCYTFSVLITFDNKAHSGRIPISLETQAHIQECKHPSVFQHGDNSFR


What was measured:
[1] = Ca2+ release assay, Daoy cells; details: glycan lost; control: Siglec-15-flag (wild type)
[2] = plasma membrane Siglec-15 level; details: glycan lost; control: Siglec-15-flag (wild type)
[3] = immunostaining flag/lamp1, Pearson's correlation; details: glycan lost; control: Siglec-15-flag (wild type)
[4] = biological target: CI-MPR used for biolayer interferometry (UniProt P11717 41-2491); assay: BLI
[5] = biological target: T1, recombinant human TRPML1 E1 domain; assay: BLI

| Binder | other: lysosomal Ca2+ release [1] | localisation_or_trafficking [2] | localisation_or_trafficking [3] | Kd [4] [pM] | Kd [5] [pM] |
| --- | --- | --- | --- | --- | --- |
| Siglec-15: N172Q (protein) parent chain: MEKSIWLLACLAWVLPTGSFVRTKIDTTENLLNTEVHSSPAQRWSMQVPPEVSAEAGDAAVLPCTFTHPHRHYDGPLTAIWRAGEPYAGPQVFRCAAARGSELCQTALSLHGRFRLLGNPRRNDLSLRVERLALADDRRYFCRVEFAGDVHDRYESRHGVRLHVTAAPRIVNISVLPSPAHAFRALCTAEGEPPPALAWSGPALGNSLAAVRSPREGHGHLVTAELPALTHDGRYTCTAANSLGRSEASVYLFRFHGASGASTVALLLGALGFKALLLLGVLAARAARRRPEHLDTPDTPPRSQAQESNYENLSQMNPRSPPATMCSP | decreases | no change | decreases | – | – |
| recombinant Siglec-15-N (263 AAs) (domain or fragment) FVRTKIDTTENLLNTEVHSSPAQRWSMQVPPEVSAEAGDAAVLPCTFTHPHRHYDGPLTAIWRAGEPYAGPQVFRCAAARGSELCQTALSLHGRFRLLGNPRRNDLSLRVERLALADDRRYFCRVEFAGDVHDRYESRHGVRLHVTAAPRIVNISVLPSPAHAFRALCTAEGEPPPALAWSGPALGNSLAAVRSPREGHGHLVTAELPALTHDGRYTCTAANSLGRSEASVYLFRFHGASGAST | – | – | – | 1040 | 499 |
